According to PMC12720418:

Biological target: VC1 tandem domains of the receptor for advanced glycation end-products (RAGE)
Assay: ITC; 100 μM calprotectin (CP*) injected into 50 μM RAGE VC1 in the cell; 25°C; 50 mM HEPES pH 7.5, 150 mM NaCl, 10 mM CaCl2; average of three titrations, independent binding model

Kd: 0.38 µM
Substance: calprotectin heterodimer of S100A8 (C42S) and S100A9 (C3S) (from UniProt P05109 1-93; P06702 4-114) (complex)
